From the supplement of paper PMC12042874
± gives the uncertainty stated by the source.

Test: amyloid nucleation score (Sup35N fusion, yeast selection) (log enrichment); library NNK3; higher = more nucleation; inactive = no reads after selection
How it was run: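 The nucleation score equals the log enrichment of output over input reads from DiMSum, centred on the mode score of non-aggregating sequences. It was computed only for sequences with 100 or more input reads. The reads came from Illumina sequencing of plasmid inserts from psi-negative yeast expressing Sup35N fused to peptides of 20 random codons, induced with 100 μM copper sulfate for 24 hours and grown 7 days at 30°C without adenine and uracil.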

Substance | amyloid nucleation score
KKASVLSHVTYNRMITAWNI | inactive
VLTVEMLHAWNCG | inactive
MVFEKGFSTNNRHGGHLDEQ | inactive
LFSTNNYNQLWGMVGFLGFG | inactive
GSCSIGSINIAFASSSIVYG | inactive
IRVSVVRSICMQSGRCEYQA | 1.21 ± 0.15
IWPVESWLWHVLWYLVFKI | 0.49 ± 0.17
TYTYCTLNSLTDSRSETILV | inactive
PYVQRNVCCAPV | inactive
TIYLDNTQLSLFRIGPVARR | 1.9 ± 0.094
FFLSFRYLKKFSRIGLW | inactive
SIGVTCAPNNLHGCLILYRF | inactive
YERLLRDKALAPIDPI | inactive
FLLVR | inactive
PLLMDPTFPFAIRTDMVSLR | inactive
QRKFVVAVVSATILLFNTRE | inactive
SNSMPSGNSRMVCCRDPSFP | inactive
YSGIRVLFYFSISDDFSQSI | 0.756 ± 0.24
VCGLLL | inactive
YRPAALSYQTRVCGTYWNDR | inactive
PDGTILMCGRPMCYIVYGAK | inactive
CASLCHSSGVCRD | inactive
RVSSHISSCGYDFCLWVEA | inactive
QLLLKT | inactive

Substance | amyloid nucleation score
PLKIYIGNQLV | inactive
RVNILFNFFCHTVW | 1.2 ± 0.13
SGLDMRYHWNFVICQATRSY | inactive
IFTVCHVGSACSGNCTGQ | 3.01 ± 0.06
SWVHVSTFWYVAFGFEKSAG | inactive
FGNGSMNRDRSSM | inactive
GRRTARKIKAGPYLCWKDGT | inactive
NFTRPLSWNYLR | inactive
GLLCFK | inactive
VMLNLQI | 1.18 ± 0.17
DVYGDGCSCYSVKYTCDRCQ | inactive
TQCEVYCIYGVTHGLE | inactive
SVLCMGLHEIQYIRRFCRHW | inactive
LFWSWYGGWKLNWGI | 0.661 ± 0.14
DALIRY | inactive
TPQPLIIAQIVASPSEKKLL | inactive
RGSDEDGYLG | 0.003 ± 0.7
FGAVVDYNFSN | -0.695 ± 0.96
AGTTEWRG | inactive
DLPVGLWKQESLSAGMYNSW | inactive
FFWKILALPSE | inactive
ILFLNHDMWQCDNDSLKAIH | inactive
SDLFVSVFM | inactive
CMFLGSELCWRRPRGS | 0.443 ± 0.32

Substance | amyloid nucleation score
AVYGVFRRRS | inactive
WDGYCSRQDRLRFAYRLGVG | inactive
NTFDTVLFRDLVYL | inactive
IYVVACGSR | inactive
VNLPFNDKYHLVFIGMA | inactive
ALYRSGLNFVIRVGTLLMIW | 1.06 ± 0.12
LCCGVCR | inactive
SIFIMHGRMKF | 1.47 ± 0.072
YCCDLYLN | inactive
VRTYNQCKSHVLDWLRNTYF | -0.295 ± 0.96
AYRLEPT | inactive
TWISITWTWPWKKWVLNLRY | inactive
LDFVYCNAVFWTLNGFLNCA | 1.78 ± 0.078
GEFYCVVLRQYVWAQDDAG | inactive
SYAANGVWRSYDLCYQCQKV | -0.712 ± 1.1
AFVFATAITELVYCSCLNRP | 2.04 ± 0.089
RYRGFNVVVLIGKDRVGSAM | inactive
SGISFTCMRHEMVSLTGGL | inactive
PCRPGRSRVVHS | 0.614 ± 0.27
KFDGLYNSFTVMNFAIMVYE | 1.65 ± 0.12
MAGCAMRVRSYMGMKSHSEC | -0.353 ± 0.74
NMVHCVLCIAHEHLKVFVMC | inactive
RDYFAYNCMVWMGTIQLYPG | 1.83 ± 0.056
ISKLVY | inactive

Substance | amyloid nucleation score
ITLLYALVLFFTWNVSG | inactive
HTFDDSTCSYTWVYFHIWCI | inactive
SDSDMNKNMHMDSTHGRAMD | inactive
PFTPFSHVR | inactive
LYEDYISSSMSMLLRLLSSY | inactive
FMSYCMYSLEGNSWHCGP | 3.03 ± 0.061
IFWVSRSDA | inactive
SMYVYPFELVSVDGRLVRTA | inactive
TNRFSRWCIRRRMSAVRYIG | inactive
WSYNITK | inactive
KVFWHDVILTCG | inactive
TRFDSVVMRKFYWVGSVRGL | inactive
SMKVEEIICGFAVVYIDTMY | 0.256 ± 0.28
YLFRVTLNVALILMLSSRCE | inactive
TNVCLRRFLVTSLNGWVDGN | inactive
LWDWVYFAYDRVYLVLCSSC | inactive
GFAGMLYDLLPFGNWSLPSH | -0.127 ± 0.75
TYSGRSKSILTGSID | inactive
VGFKSCS | inactive
FGIEQTWSNECSVKTVEMRC | inactive
RMTKTKI | inactive
FMDYTARVVHLTAQRFMGLW | 0.189 ± 0.43
VFTNGRSYISRMISYYKYCR | inactive
QVDFQLCH | inactive

Substance | amyloid nucleation score
IGKKVCMCRDKGGLIGLRGG | inactive
TVFDWLMHQMNC | inactive
NTCSLFSKISDNIQRSAHAR | inactive
MYRLVGHLTIHVVMVLAQWW | inactive
EDKGYWNLQAIEIVIQYGGR | 0.225 ± 0.43
SSWNTTYMESSVPVGYLFRI | inactive
LKIGTFCSNPGSLIVVYLTV | inactive
AIEKGHK | 0.235 ± 0.19
SRRLVKESDDRGCCRGLFWD | inactive
RTSRT | inactive
ISIVKGCAFGLLSTFMATPS | 0.079 ± 0.75
LIVSIYMCGCRKRITFLRVS | inactive
SCFCC | 3.09 ± 0.061
DYCGKRYPSASVKWPECFRG | inactive
QTSIPGFDTTTLRVPLAFFG | inactive
FVLSMECSSRSSPSHTRDCA | -0.083 ± 0.33
VTAELNFITVNGYVE | inactive
FPFSYVYSR | inactive
RYLFRFYSRDVVSMMQ | inactive
TNIHKTVSMKW | inactive
HLLRCYMFIVDEVCWSVVAR | inactive
PGLCGNGHNDHKTVNIEVYH | inactive
VSSMGSV | inactive
VNALKRTGK | inactive

Substance | amyloid nucleation score
CDYIKAKSVTDVCGNP | inactive
CAFLFL | inactive
WGESNVSTIV | inactive
YEIHWSRRKGMWFEYYTFHF | inactive
NVYIVSIRMFCDYRVTAPKT | 2.35 ± 0.068
YCQESRSCWAQSYICEGVSL | -0.253 ± 1.1
NYIWLFVLYAIVRFSHWLDF | 0.779 ± 0.14
IVCMLQFEVVVLHACRFESK | inactive
HFMMYMLQRVHELFILSKSM | inactive
KMRRVLLSLSVYMNCKSMVR | inactive
YTYWG | inactive
SFSFVDLGIHYLMCNDSKIT | inactive
STPWHSRAISVALDRGDRWM | inactive
DSSNGFICR | inactive
GRHSALRASFGL | inactive
DDRSP | inactive
IDYSNVYSISRPSMFCWRNN | inactive
CTDIICMIRFVVLDMRGAN | 0.981 ± 0.12
NMDNHTPG | inactive
NSTINAPRLTRPGGPCSRKV | inactive
WVVQE | -0.553 ± 0.93
FVMGGGNGGHVGYMCFCEEV | inactive
NNIFWMRFMFDPWRR | 1.04 ± 0.21
VYGIQRVMGRLWIMNVWVPF | inactive

Substance | amyloid nucleation score
GRILLYLNEFFSGRIISLHK | inactive
SAGLKS | inactive
TYQSVDTVLSSVT | inactive
SRCWGDILPLNIQYLMR | inactive
RFSRTDGRLWSCKTCQ | inactive
NCRVMEISIGKAKQSWNFVM | inactive
SFLWGFCRTKETGGSFMFNR | 0.264 ± 0.62
VYGLVRLALSAINDYEDYNL | inactive
TLWYSFQKSSSNLTRSLGLK | inactive
YTLVVQTSMVVFLRLYSGRY | inactive
EGYRFCCGMLIN | inactive
LFAYRWGIYFRLKVEYFVDS | inactive
IMEFYERMLFL | inactive
HQTRIMPGLLGKRAFIRVRL | inactive
PQLWSMYHSGP | -0.586 ± 1.4
TFEQVCVLL | inactive
HSSSVTCI | inactive
CCKSCSTLFLNFSLFNDLLT | inactive
